In PMC10653809:

Substrate: COc1cc(S(=O)(=O)O)c(C)cc1N=Nc1c(O)ccc2cc(S(=O)(=O)O)ccc12
Assay: purified protein
Conditions: 2,000 µM NADH, 20 µM FMN, 20 mM sodium phosphate buffer, 37°C, aerobic

B1: AzoR (Escherichia coli K-12) (protein)
chain: SKVLVLKSSILAGYSQSNQLSDYFVEQWREKHSADEITVRDLAANPIPVLDGELVGALRPSDAPLTPRQQEALALSDELIAELKAHDVIVIAAPMYNFNISTQLKNYFDLVARAGVTFRYTENGPEGLVTGKKAIVITSRGGIHKDGPTDLVTPYLSTFLGFIGITDVKFVFAEGIAYGPEMAAKAQSDAKAAIDSIVSA
- Km: 67.7 µM
